Results from EP4538294A1 (Shandong Simcere Biopharmaceutical Co., Ltd., dated 2025).
“And” between values parts separate entries of the source, which are not always exact repeats. Equal entries are not always repeated.

T1: human BCMA on Flp-inCHO-human BCMA cells (human, UniProt Q02223 1-184)
T1 construct: whole, on cells
T1 sequence (looked up): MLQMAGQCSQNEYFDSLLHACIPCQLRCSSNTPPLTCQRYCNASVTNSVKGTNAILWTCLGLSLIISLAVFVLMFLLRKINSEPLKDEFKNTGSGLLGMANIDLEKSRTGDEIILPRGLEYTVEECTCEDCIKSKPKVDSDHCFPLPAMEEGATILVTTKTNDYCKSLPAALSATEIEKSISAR

B1: Tri-59 (trispecific antibody, V domains shown)
VHH: EVQLVESGGGLVQPGGSLRLSCAASESISSIHIMAWYRQAPGKQRELVAGIRNDGSTVYVDSVKGRFTISRDNAKNSLYLQMNSLRAEDTAVYYCNADQGFGSYSEWERRSRWGQGTTVTVSS
VH 1: EVQLVQSGAEVKKPGSSVKVSCKASGYTFTSYGISWVRQAPGQGLEWMGEIYPRSGNTYYNEKFKGRVTLTADKSTSTAYMELSSLRSEDTAVYYCARGRAYGRNYPMDYWGQGTTVTVSS
VL 1: EIVLTQSPATLSLSPGERATLSCRASQSIGTSIHWYQQKPGQSPRLLIKYASESISGIPARFSGSGSGTDFTLTISSLEPEDFAVYYCQQSNSWPYTFGGGTKVEIK
VH 2: EVQLVESGGGVVQPGRSLRLSCAASGFTFTDYYMSWVRQAPGKGLEWVAMSRNKAKGHTIEYSSSVKGRFTISRDNSKNTLYLQMNSLRAEDTAVYYCARDTYESYDGYFDVWGQGTTVTVSS
VL 2: DIVMTQSPDSLAVSLGERATINCKSSQSLFNSRSRKNYLAWYQQKPGQTPKLLIYWASIRESGVPDRFSGSGSGTDFTLTISSLQAEDVAVYYCKQSYYLYTFGQGTKLEIK
B2: Tri-49 (trispecific antibody, V domains shown)
VHH: B1 VHH
VH 1: B1 VH 1
VL 1: B1 VL 1
VH 2: B1 VH 2
VL 2: B1 VL 2
B3: Tri-32 (trispecific antibody, V domains shown)
VHH: EVQLVESGGGLVQPGGSLRLSCSASGFTLDYYMIGWFRQAPGKEREGLSSISPADGSTYYADSVKGRFTISRDSSKNTVYLQMNSLRAEDTAVYYCAAGNEATISWGFGPWEYDYWGQGTMVTVSS
VH 1: B1 VH 1
VL 1: B1 VL 1
VH 2: B1 VH 2
VL 2: B1 VL 2
B4: Tri-41 (trispecific antibody, V domains shown)
VHH: B3 VHH
VH 1: B1 VH 1
VL 1: B1 VL 1
VH 2: B1 VH 2
VL 2: B1 VL 2
B5: Tri-35 (trispecific antibody, V domains shown)
VHH: B3 VHH
VH 1: B1 VH 1
VL 1: B1 VL 1
VH 2: B1 VH 2
VL 2: B1 VL 2
B6: Tri-29 (trispecific antibody, V domains shown)
VHH: B3 VHH
VH 1: B1 VH 1
VL 1: B1 VL 1
VH 2: B1 VH 2
VL 2: B1 VL 2
B7: Tri-55 (trispecific antibody, V domains shown)
VHH: B1 VHH
VH 1: B1 VH 1
VL 1: B1 VL 1
VH 2: B1 VH 2
VL 2: B1 VL 2
B8: REGN5459 (bispecific antibody, human IgG4 S228P, kappa)
heavy 1: EVQLVESGGGLVQPGGSLRLSCAASGFTFSNFWMTWVRQAPGKGLEWVANMNQDGSEKYYVDSVKGRFTISRDNAKSSLYLQMNSLRAEDTAVYYCARDREYCISTSCYDDFDYWGQGTLVTVSSASTKGPSVFPLAPCSRSTSESTAALGCLVKDYFPEPVTVSWNSGALTSGVHTFPAVLQSSGLYSLSSVVTVPSSSLGTKTYTCNVDHKPSNTKVDKRVESKYGPPCPPCPAPPVAGPSVFLFPPKPKDTLMISRTPEVTCVVVDVSQEDPEVQFNWYVDGVEVHNAKTKPREEQFNSTYRVVSVLTVLHQDWLNGKEYKCKVSNKGLPSSIEKTISKAKGQPREPQVYTLPPSQEEMTKNQVSLTCLVKGFYPSDIAVEWESNGQPENNYKTTPPVLDSDGSFFLYSRLTVDKSRWQEGNVFSCSVMHEALHNHYTQKSLSLSLGK
heavy 2: EVQLVESGGGLVQPGRSLRLSCAASGFTFDDYSMHWVRQAPGKGLEWVSGISWNSGSIGYADSVKGRFTISRDNAKNSLYLQMNSLRAEDTALYYCAKYGSGYGKFYYYGMDVWGQGTTVTVSSASTKGPSVFPLAPCSRSTSESTAALGCLVKDYFPEPVTVSWNSGALTSGVHTFPAVLQSSGLYSLSSVVTVPSSSLGTKTYTCNVDHKPSNTKVDKRVESKYGPPCPPCPAPPVAGPSVFLFPPKPKDTLMISRTPEVTCVVVDVSQEDPEVQFNWYVDGVEVHNAKTKPREEQFNSTYRVVSVLTVLHQDWLNGKEYKCKVSNKGLPSSIEKTISKAKGQPREPQVYTLPPSQEEMTKNQVSLTCLVKGFYPSDIAVEWESNGQPENNYKTTPPVLDSDGSFFLYSRLTVDKSRWQEGNVFSCSVMHEALHNRFTQKSLSLSLGK
light: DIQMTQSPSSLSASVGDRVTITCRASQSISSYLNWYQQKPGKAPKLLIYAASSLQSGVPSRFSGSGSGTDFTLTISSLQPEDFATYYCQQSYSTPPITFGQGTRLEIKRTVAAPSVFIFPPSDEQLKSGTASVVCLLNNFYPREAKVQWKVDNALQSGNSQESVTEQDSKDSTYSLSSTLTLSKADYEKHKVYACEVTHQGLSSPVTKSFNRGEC
notes: Positive control, BCMA x CD3 bispecific of Regeneron (WO 2020018820 A1), made in Expi293F; Fc with mutations that prevent homodimerization; also called RGEN5459
B9: JNJ7564 (bispecific antibody, human IgG4 S228P, kappa, lambda, F234A L235A)
heavy 1: not shown
light 1: DIQMTQSPSSLSASVGDRVTITCKASQNVATHVGWYQQKPGKAPKRLIYSASYRYSGVPSRFSGSGSGTEFTLTISNLQPEDFATYYCQQYNRYPYTFGQGTKLEIKRTVAAPSVFIFPPSDEQLKSGTASVVCLLNNFYPREAKVQWKVDNALQSGNSQESVTEQDSKDSTYSLSSTLTLSKADYEKHKVYACEVTHQGLSSPVTKSFNRGEC
heavy 2: EVQLVESGGGLVQPGGSLRLSCAASGFTFNTYAMNWVRQAPGKGLEWVARIRSKYNNYATYYAASVKGRFTISRDDSKNSLYLQMNSLKTEDTAVYYCARHGNFGNSYVSWFAYWGQGTLVTVSSASTKGPSVFPLAPCSRSTSESTAALGCLVKDYFPEPVTVSWNSGALTSGVHTFPAVLQSSGLYSLSSVVTVPSSSLGTKTYTCNVDHKPSNTKVDKRVESKYGPPCPPCPAPEAAGGPSVFLFPPKPKDTLMISRTPEVTCVVVDVSQEDPEVQFNWYVDGVEVHNAKTKPREEQFNSTYRVVSVLTVLHQDWLNGKEYKCKVSNKGLPSSIEKTISKAKGQPREPQVYTLPPSQEEMTKNQVSLTCLVKGFYPSDIAVEWESNGQPENNYKTTPPVLDSDGSFLLYSKLTVDKSRWQEGNVFSCSVMHEALHNHYTQKSLSLSLGK
light 2: QTVVTQEPSLTVSPGGTVTLTCRSSTGAVTTSNYANWVQQKPGQAPRGLIGGTNKRAPGTPARFSGSLLGGKAALTLSGVQPEDEAEYYCALWYSNLWVFGGGTKLTVLGQPKAAPSVTLFPPSSEELQANKATLVCLISDFYPGAVTVAWKADSSPVKAGVETTTPSKQSNNKYAASSYLSLTPEQWKSHRSYSCQVTHEGSTVEKTVAPTECS
notes: Positive control, GPRC5D x CD3 bispecific of Johnson & Johnson (WO 2019220368 A1), made by reduction and reoxidation of the two parental antibodies
B10: antiFITC×CD3-Hab01 (bispecific antibody, human IgG4 S228P, kappa, F234A L235A)
heavy: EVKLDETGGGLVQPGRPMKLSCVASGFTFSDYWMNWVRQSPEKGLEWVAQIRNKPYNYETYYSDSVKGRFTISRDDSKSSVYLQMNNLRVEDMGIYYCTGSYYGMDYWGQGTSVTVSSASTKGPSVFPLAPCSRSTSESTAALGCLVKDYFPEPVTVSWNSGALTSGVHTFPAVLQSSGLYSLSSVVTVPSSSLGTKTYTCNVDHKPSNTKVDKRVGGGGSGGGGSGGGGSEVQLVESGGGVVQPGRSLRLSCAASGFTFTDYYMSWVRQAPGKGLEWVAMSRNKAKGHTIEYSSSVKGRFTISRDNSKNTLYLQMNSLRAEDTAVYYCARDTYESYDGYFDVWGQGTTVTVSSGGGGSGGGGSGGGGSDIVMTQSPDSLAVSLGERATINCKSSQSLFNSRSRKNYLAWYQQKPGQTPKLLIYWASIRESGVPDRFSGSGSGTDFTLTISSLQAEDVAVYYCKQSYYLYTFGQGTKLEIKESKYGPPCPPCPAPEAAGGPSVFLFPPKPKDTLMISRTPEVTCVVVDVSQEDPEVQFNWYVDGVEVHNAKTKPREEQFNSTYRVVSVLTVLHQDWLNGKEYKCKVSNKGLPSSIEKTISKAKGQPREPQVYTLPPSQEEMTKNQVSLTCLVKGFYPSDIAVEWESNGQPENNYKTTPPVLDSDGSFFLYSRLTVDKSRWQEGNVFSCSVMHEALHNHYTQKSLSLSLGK
light: DVVMTQTPLSLPVSLGDQASISCRSSQSLVHSNGNTYLRWYLQKPGQSPKVLIYKVSNRFSGVPDRFSGSGSGTDFTLKISRVEAEDLGVYFCSQSTHVPWTFGGGTKLEIKRTVAAPSVFIFPPSDEQLKSGTASVVCLLNNFYPREAKVQWKVDNALQSGNSQESVTEQDSKDSTYSLSSTLTLSKADYEKHKVYACEVTHQGLSSPVTKSFNRGEC
notes: Negative control for the tumor antigens, prepared internally; carries the CD3-Hab01 arm
B11: REGN5459-anti-BCMA-hIgG1 (antibody, V domains shown)
VH: EVQLVESGGGLVQPGGSLRLSCAASGFTFSNFWMTWVRQAPGKGLEWVANMNQDGSEKYYVDSVKGRFTISRDNAKSSLYLQMNSLRAEDTAVYYCARDREYCISTSCYDDFDYWGQGTLVTVSS
VL: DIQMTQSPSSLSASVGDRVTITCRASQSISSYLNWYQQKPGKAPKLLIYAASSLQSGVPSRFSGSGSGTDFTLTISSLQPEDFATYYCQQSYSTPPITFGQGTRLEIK

Biological target: T2, human CD3 on Jurkat cells and on activated human PBMC (human, UniProt P07766 23-207; P04234 22-171)
T2 construct: whole, on cells; Endogenous CD3 of the T cell receptor complex on cells
T2 sequence (P07766 23-207, chain 1 of 2): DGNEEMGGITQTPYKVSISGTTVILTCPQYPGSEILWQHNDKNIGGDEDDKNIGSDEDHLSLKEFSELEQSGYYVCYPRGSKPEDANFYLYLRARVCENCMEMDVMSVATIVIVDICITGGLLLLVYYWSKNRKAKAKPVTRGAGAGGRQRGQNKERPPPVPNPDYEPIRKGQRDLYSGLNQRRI
T2 sequence (P04234 22-171, chain 2 of 2): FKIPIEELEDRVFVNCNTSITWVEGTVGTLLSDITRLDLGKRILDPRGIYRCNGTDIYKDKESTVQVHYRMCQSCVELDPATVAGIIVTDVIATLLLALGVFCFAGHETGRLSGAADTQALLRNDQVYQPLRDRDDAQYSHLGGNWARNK
Assay: FACS, Jurkat cells

Binder	Maximum mean fluorescence intensity	EC50
B1	1800	–
B2	795	157 nM
B3	3120	370 nM
B4	85	–
B5	320	–
B6	418	–
B7	4690	179 nM
B8	–	74.7 nM and 49.7 nM and 66.8 nM and 101 nM

Biological target: T2, human CD3 on Jurkat cells and on …
Assay: FACS, activated human PBMC

Binder	EC50	Maximum mean fluorescence intensity
B1	92.1 nM	3510
B2	31.8 nM	1730
B3	–	1780
B4	–	235
B5	81.4 nM	2240
B6	161 nM	6730
B7	149 nM	2260
B8	223 nM and 221 nM	–
B9	5.21 nM and 7.36 nM	–

Biological target: T3, monkey CD3 on activated monkey PBMC (monkey)
T3 construct: whole, on cells
T3 sequence (Q95LI5 22-198): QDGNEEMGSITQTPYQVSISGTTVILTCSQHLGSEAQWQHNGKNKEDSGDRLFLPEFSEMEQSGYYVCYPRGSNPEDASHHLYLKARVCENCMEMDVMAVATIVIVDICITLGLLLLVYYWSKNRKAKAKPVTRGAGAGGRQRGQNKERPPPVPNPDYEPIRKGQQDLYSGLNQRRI
Assay: FACS, activated monkey PBMC

Binder	EC50	Maximum mean fluorescence intensity
B1	249 nM	5280
B2	59.4 nM	1380
B3	–	1680
B4	–	417
B5	–	1970
B6	–	5630
B7	159 nM	2030
B10	15.2 nM and 12.4 nM	–
B8	161 nM	–
B9	5.79 nM and 5.72 nM	–

Biological target: T1, human BCMA on Flp-inCHO-human BCMA cells
Assay: FACS, Flp-inCHO-human BCMA cells

Binder	binding result
B11	binds

Biological target: T4, human GPRC5D on CHOK1-human GPRC5D cells (human, UniProt Q9NZD1 1-345)
T4 construct: whole, on cells
T4 sequence (Q9NZD1 whole entry): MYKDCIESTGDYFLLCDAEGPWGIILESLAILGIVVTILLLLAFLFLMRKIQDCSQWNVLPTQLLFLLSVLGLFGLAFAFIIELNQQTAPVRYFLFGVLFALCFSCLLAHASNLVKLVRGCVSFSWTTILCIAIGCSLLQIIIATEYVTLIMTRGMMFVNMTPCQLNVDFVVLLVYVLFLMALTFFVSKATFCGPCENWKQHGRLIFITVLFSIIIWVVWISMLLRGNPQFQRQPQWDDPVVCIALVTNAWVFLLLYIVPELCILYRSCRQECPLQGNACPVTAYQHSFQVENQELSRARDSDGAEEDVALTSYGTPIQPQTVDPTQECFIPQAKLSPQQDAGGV
Assay: FACS, CHOK1-human GPRC5D cells

Binder	EC50 [nM]	binding result
B1	0.59	–
B2	2.75	–
B3	3.06	–
B4	4.3	–
B5	1.78	–
B6	1.39	–
B7	6.26	–
B10	–	no binding (tested: 100 nM highest concentration)
B8	–	no binding (tested: 100 nM highest concentration)

Biological target: T1, human BCMA on Flp-inCHO-human BCMA cells
Assay: FACS, Flp-inCHO-human BCMA cells
Remark: another data set of the same source

Binder	EC50 [nM]	binding result
B1	1.21	–
B2	1.34	–
B3	2.03	–
B4	1.52	–
B5	2.53	–
B6	2.27	–
B7	0.92	–
B10	–	no binding (tested: 100 nM highest concentration)
B9	–	no binding (tested: 100 nM highest concentration)
